The values that follow come from patent EP2658867B1 (Avidbiotics Corp., dated 2018).

The target in experiment [1] is T1, integrin αVβ5 (UniProt P06756 31-992; P18084 24-719).
T1 construct: Coated on the ELISA plate
Briefly: ELISA, integrin coated, anti-MICA-HRP. On the technique in general: An ELISA detects its analyte on a solid surface through an enzyme-linked reagent.

For experiment [2], the target named is T2, integrin αVβ3 (UniProt P06756 31-992; P05106 27-718).
T2 construct: Coated on the ELISA plate
Put plainly: ELISA, integrin coated, anti-MICA-HRP.

Experiment [3] deals with T1, integrin αVβ5. Briefly: ELISA, integrin coated, anti-MICA-HRP. This is another data set of the same source.
Experiment [4] has as its target T2, integrin αVβ3. Put plainly: ELISA, integrin coated, anti-MICA-HRP. This is another data set of the same source.
In experiment [5] the target is T1, integrin αVβ5. Put plainly: phage ELISA, integrin coated, anti-M13-HRP.
The target of experiment [6] is T2, integrin αVβ3. Briefly: phage ELISA, integrin coated, anti-M13-HRP.

Like-named read-outs stand apart in the source and are kept apart here.

T1 sequence (P06756 31-992, chain 1 of 2): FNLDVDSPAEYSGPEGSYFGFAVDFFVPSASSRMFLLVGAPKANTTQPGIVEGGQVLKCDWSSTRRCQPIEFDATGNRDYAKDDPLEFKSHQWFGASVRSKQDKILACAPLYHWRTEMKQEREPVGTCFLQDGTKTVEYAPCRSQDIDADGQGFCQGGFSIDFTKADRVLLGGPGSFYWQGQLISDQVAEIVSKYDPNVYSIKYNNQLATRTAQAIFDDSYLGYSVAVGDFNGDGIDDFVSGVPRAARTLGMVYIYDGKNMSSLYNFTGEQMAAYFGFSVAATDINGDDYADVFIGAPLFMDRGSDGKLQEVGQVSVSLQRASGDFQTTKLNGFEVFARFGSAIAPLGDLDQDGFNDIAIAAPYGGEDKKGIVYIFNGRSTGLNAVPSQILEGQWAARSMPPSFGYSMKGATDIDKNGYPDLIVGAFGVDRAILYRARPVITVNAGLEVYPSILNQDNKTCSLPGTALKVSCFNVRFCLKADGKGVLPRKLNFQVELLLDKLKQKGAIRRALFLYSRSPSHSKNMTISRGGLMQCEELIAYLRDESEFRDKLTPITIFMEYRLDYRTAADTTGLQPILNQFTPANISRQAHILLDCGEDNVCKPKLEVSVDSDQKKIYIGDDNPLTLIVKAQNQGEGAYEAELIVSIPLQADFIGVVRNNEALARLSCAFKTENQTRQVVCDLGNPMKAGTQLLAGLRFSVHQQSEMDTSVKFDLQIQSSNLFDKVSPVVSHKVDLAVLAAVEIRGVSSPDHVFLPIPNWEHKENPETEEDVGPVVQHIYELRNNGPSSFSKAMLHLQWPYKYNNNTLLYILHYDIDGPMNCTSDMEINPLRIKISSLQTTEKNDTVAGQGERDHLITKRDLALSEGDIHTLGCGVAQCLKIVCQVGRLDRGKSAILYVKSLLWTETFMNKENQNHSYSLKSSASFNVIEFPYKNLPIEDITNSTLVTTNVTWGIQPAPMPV
T1 sequence (P18084 24-719, chain 2 of 2): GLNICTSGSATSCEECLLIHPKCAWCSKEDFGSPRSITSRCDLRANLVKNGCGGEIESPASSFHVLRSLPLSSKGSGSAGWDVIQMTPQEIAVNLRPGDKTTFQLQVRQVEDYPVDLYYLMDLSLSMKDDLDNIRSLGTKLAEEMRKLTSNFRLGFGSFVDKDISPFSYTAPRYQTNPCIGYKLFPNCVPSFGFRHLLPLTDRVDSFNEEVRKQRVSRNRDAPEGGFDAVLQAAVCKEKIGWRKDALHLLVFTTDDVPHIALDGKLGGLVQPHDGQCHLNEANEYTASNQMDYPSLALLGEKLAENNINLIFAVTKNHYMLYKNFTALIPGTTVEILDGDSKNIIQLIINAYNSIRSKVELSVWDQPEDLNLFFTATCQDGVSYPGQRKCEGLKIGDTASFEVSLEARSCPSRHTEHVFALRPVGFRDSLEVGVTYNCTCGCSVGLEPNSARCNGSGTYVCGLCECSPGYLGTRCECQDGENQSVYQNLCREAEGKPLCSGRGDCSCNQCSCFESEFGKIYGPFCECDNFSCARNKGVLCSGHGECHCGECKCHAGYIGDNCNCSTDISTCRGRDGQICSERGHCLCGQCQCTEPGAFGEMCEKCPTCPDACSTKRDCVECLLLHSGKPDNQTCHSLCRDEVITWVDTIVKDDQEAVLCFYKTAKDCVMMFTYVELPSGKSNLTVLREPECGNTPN
T2 sequence (P06756 31-992, chain 1 of 2): as the sequence (P06756 31-992, chain 1 of 2) above
T2 sequence (P05106 27-718, chain 2 of 2): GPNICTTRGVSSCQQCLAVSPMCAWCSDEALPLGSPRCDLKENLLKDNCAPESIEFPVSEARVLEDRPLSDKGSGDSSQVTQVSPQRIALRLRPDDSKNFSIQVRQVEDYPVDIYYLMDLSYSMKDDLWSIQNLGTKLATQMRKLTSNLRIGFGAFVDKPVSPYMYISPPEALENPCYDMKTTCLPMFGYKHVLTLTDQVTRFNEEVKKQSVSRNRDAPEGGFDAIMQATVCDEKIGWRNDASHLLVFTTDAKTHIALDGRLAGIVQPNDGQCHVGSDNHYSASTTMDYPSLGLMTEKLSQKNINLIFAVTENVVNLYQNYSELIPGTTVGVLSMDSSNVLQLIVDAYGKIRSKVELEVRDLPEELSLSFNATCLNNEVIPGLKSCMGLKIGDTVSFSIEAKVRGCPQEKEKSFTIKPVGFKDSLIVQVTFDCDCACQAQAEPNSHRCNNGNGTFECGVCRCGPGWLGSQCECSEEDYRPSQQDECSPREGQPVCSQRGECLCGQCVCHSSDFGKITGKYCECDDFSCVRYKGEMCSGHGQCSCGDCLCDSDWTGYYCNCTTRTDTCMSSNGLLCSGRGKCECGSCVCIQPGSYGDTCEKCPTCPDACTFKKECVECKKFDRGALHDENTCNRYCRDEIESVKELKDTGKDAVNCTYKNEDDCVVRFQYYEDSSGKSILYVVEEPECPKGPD

B1: soluble MICA generated by pKK46 (extended loop 5.1sp in loop 1) (designed binder)
chain: HHHHHHEPHSLRYNLTVLSWDGSVQSGFLTEVHLDGQPFLRCDRQKCRAKPQGQWAEDVLGNKTWDRETRDLTGNGKDLRMTLAHIKDQKEGLHSLQEIRVCEIHEDNSTRSSQHFYYDGELFLSQNLETEEWTMPQSSRAQTLAMNVRNFLKEDAMKTKTHYHAMHADCLQELRRYLKSGVVLRRTVPPMVNVTSGGSGGGSVTRGDTFTQSSGGSGGGVTCRASGFYPWNITLSWRQDGVSLSHDTQQWGDVLPDGNGTYQTWVATRICQGEEQRFTCYMEHSGNHSTHPVPSGK
B1: the signal in experiment [1] was 1.06 OD; in experiment [2], 0.384 OD; in experiment [3] it was 0.66 OD; in experiment [4] it was 0.467 OD. Moreover, the signal/ng was determined as 25.5 signal/ng in experiment [1], 9.2 signal/ng in experiment [2], 13.3 signal/ng in experiment [3] and 9.42 signal/ng in experiment [4].

B2: M13 phage pKK108 displaying MICA α3 domain with tight T-3.5 in loop 1 (designed binder)
chain: TVPPMVNGSRGDSLIMHCRASGFYPWNITLSWRQDGVSLSHDTQQWGDVLPDGNGTYQTWVATRICQGEEQRFTCYMEHSGNHSTHPVPSGK
notes: α3 amplified from pKK53; also called 1-T-3.5; not shown: M13 phage capsid protein pIII, C-terminal portion, fused at codon position 198
Take B2: the signal in experiment [5] is -0.204 OD; in experiment [6], -0.09 OD.

B3: M13 phage pKK139 displaying MICA α3 domain with extended 5.1sp in loop 1 and extended 5.1spNH in loop 3 (designed binder, not shown: large carriers)
chain: TVPPMVNVTSGGSGGGSVTRGDTFTQSSGGSGGGVTCRASGFYPWNITLSWRQDGVSLSHDTQQWGDVLPDGNGTYQTWVATRISGGSGGGSVTRGDTFTQSSGGSGGGCYMEHSGNHSTHPVPSGK
Take B3: the signal in experiment [5] was 5.36 OD; in experiment [6], 2.48 OD.

B4: M13 phage pKK106 displaying wild type MICA α3 domain fused to pIII (other)
chain: TVPPMVNVTRSEASEGNITVTCRASGFYPWNITLSWRQDGVSLSHDTQQWGDVLPDGNGTYQTWVATRICQGEEQRFTCYMEHSGNHSTHPVPSGK
notes: also called WT; not shown: M13 phage capsid protein pIII, C-terminal portion, fused at codon position 198
With B4, the signal in experiment [5] and in experiment [6] was 0 OD throughout.
